Target: cell surface IgG (sIgG) of the sIgG+ B cell line SU-DHL-4
Assay: cell-based or functional assay

| Substance | concentration showing weak cytotoxicity on SU-DHL-4 (cell viability) | lowest concentration with significant toxicity on SU-DHL-4 (cell viability) | percent of SU-DHL-4 cells killed above 0.001 µg/ml |
| --- | --- | --- | --- |
| SpG toxin (from UniProt P00587 26-411) | 1 µg/mL | – | – |
| SpA toxin | – | 0.0001 µg/mL | 99% |
